This passage reports stoichiometry N results from PMC6437178.

The experiment addresses engineered Salmo salar Ctr1 crystallization construct sCtr1_(cryst) (Salmo salar | not stated). Briefly: crystal structure; hanging-drop vapor diffusion at 20 °C; 26-28% PEG 400, 50 mM zinc acetate, 50 mM sodium cacodylate pH 5.9; protein in CYMAL-5; Cu^+-free (3.0 Å) and Cu^+-bound (3.2 Å) states; trimer on the crystallographic three-fold axis.

What is called stoichiometry N is the number of molecules, sites or subunits per partner or assembly.

As to “engineered Salmo salar Ctr1 crystallization construct sCtr1_(cryst) (from UniProt A0A1S3KYH5 41-93; A0A1S3KYH5 121-184)”, the stoichiometry N worked out at 3.
